{"source": "paper PMC4604100", "about": "“Melanocortin agonists stimulate lipolysis in human adipose tissue explants but not in adipocytes” (BMC Research Notes, 2015)", "origin": "cited, not measured here", "molecules": {"B1": {"name": "Agouti/ASIP: agouti/agouti signaling protein, endogenous melanocortin receptor antagonist (protein, UniProt P42127 23-132, looked up)", "Agouti-signaling protein": "HLPPEEKLRDDRSLRSNSSVNLLDVPSVSIVALNKKSKQIGRKAAEKKRSSKKEASMKKVVRPRTPLSAPCVATRNSCKPPAPACCDPCASCQCRFFRSACSCRVLSLNC"}}, "test_system": "MC1R", "details": "ref [24]", "text": "It is still rather unclear as to what extent peripherally expressed MCRs regulate metabolism. […] In addition, POMC expression has been identified in peripheral tissues such as the skin, testes, ovaries, placenta, adrenal glands, gastrointestinal tract, immune cells and tumors. The peripheral melanocortin system was initially examined f ..."}
{"molecule": "B1", "values": [{"measurement": "antagonism on MC1R (in words)", "result": "high affinity antagonist"}]}
